According to patent publication US8697369B2, “Method for screening a test substance for activating a receptor associated with FGF 21 activity” (National Institute of Advanced Industrial Science and …, priority 2007, dated 2014):
Entries after “also recorded” stand apart in the source; their conditions may differ.

B1: FGF21: fibroblast growth factor 21; mouse-derived protein used in Examples 1-7 and 10-13 (protein)
chain: AYPIPDSSPLLQFGGQVRQRYLYTDDDQDTEAHLEIREDGTVVGAAHRSPESLLELKALKPGVIQILGVKASRFLCQQPDGALYGSPHFDPEACSFRELLLEDGYNVYQSEAHGLPLRLPQKDSPNQDATSWGPVRFLPMPGLLHEPQDQAGFLPPEPPDVGSSDPLSMVEPLQGRSPSYAS

Experiments:
[1] = target: T1, FGFR2c/betaKlotho-expressing cells (Mus musculus, UniProt P21803+Q99N32); test: Phosphorylation of FRS2 and MAPK (Western blotting) in FGFR2c/betaKlotho-expressing cells; assay type: cell-based; conditions: presence of heparin; 10 minutes stimulation
T1 construct: the entire-length cDNA of mouse betaKlotho was cloned into an animal cell expression vector; expressed in transfected cells; host or cells: BaF3 (mouse pro-B) cells
T1 sequence (P21803 22-821): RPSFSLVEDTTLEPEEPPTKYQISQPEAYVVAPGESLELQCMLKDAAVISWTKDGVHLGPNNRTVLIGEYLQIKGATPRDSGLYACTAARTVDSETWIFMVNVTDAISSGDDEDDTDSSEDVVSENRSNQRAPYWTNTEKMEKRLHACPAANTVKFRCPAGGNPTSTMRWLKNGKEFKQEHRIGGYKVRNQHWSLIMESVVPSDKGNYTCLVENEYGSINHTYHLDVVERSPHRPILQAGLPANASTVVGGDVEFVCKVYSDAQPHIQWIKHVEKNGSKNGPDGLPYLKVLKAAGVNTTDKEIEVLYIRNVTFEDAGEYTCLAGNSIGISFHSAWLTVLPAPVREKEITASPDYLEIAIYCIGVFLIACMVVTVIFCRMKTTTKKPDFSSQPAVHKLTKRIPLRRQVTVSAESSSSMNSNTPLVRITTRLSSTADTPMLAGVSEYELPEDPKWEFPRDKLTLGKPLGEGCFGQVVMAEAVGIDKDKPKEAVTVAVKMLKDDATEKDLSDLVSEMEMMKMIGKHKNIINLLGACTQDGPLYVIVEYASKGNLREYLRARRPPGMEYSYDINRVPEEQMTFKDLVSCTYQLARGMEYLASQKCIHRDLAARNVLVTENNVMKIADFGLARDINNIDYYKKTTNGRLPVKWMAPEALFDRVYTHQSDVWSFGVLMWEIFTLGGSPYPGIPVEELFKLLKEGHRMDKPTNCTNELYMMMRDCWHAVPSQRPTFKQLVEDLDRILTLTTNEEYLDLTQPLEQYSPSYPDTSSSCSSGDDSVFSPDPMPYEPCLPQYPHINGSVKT
T1 sequence (Q99N32 whole entry): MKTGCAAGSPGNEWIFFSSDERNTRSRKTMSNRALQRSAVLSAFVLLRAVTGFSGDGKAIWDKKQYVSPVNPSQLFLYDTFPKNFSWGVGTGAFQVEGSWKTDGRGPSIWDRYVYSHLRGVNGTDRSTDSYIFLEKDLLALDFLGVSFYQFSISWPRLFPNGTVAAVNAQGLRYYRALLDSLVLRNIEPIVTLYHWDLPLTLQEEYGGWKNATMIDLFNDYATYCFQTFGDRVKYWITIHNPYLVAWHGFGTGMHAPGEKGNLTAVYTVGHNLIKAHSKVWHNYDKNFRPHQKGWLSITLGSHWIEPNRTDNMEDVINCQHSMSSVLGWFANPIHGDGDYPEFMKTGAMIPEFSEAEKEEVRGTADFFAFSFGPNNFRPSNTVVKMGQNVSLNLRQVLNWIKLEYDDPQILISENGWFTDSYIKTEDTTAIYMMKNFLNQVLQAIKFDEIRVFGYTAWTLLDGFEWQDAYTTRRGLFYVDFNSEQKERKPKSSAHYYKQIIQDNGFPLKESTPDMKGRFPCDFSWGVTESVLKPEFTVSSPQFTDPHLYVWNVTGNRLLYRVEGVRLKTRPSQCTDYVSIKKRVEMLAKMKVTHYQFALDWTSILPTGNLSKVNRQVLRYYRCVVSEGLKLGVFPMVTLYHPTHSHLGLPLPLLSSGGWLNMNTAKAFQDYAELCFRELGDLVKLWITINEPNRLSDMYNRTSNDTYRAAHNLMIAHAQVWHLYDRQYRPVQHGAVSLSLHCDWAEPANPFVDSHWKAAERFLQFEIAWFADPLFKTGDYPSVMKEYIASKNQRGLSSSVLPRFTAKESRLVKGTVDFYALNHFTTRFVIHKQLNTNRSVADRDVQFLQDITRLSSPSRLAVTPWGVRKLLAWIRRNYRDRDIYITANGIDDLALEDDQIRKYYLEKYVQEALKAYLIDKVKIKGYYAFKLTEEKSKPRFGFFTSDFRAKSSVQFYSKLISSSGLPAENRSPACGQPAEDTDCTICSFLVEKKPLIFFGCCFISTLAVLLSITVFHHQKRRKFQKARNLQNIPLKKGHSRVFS
Protocol: (§1) Each FGFR/betaKlotho-expressing cells obtained in Example 6 were stimulated with FGF, and the activated state (phosphorylated state) of a signaling molecule FRS2 (fibroblast growth factor receptor substrate 2) located downstream of FGFR, and that of MAPK (mitogen activated protein kinase; alias: ERK (extracellular signal-regulated kinase; in general, there are two types of ERKs, namely, ERK1 with a molecular weight of 44 kDa and ERK2 with a molecular weight of 42 kDa)), were analyzed. Different types of cells were stimulated with each FGF in the presence of heparin for 10 minutes, and a cell lysate was then prepared. Thereafter, the phosphorylated degree was evaluated by measuring it by a Western blotting method using a commercially available anti-phosphorylation FRS2 antibody or an anti-phosphorylation MAPK antibody.

[2] = test system: FGFR3c/betaKlotho-expressing BaF3 cells; test: DNA synthesis (thymidine incorporation) in FGFR3c/betaKlotho-expressing BaF3 cells; assay type: cell-based, mouse; conditions: BaF3 cells expressing FGFR3c and betaKlotho
Sequence of FGFR3c/betaKlotho-expressing BaF3 cells (Q61851 21-369 limits assumed): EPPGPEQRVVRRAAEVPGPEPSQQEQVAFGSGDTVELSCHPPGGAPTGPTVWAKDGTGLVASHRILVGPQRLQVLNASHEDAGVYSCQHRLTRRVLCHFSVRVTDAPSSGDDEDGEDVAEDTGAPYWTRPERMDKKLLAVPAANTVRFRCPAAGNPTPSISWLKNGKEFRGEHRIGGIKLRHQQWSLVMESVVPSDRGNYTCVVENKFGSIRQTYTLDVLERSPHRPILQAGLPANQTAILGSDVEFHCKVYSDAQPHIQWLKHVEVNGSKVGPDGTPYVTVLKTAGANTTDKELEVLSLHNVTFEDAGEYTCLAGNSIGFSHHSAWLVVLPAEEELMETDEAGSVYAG
Sequence of FGFR3c/betaKlotho-expressing BaF3 cells (Q99N32 whole entry, further chain): as the sequence (Q99N32 whole entry) above
Protocol: (§2) A commonly used measurement method is a cell growth stimulating activity measurement method described in Ornitz, D. M., Xu, J., Colvin, J. S., McEwen, D. G., MacArthur, C. A., Coulier, F., Gao, G. and Goldfarb, M. (1996) Receptor specificity of the fibroblast growth factor family. J Biol Chem, 271, 15292-15297. The summary thereof is as follows. FGF used as a measurement target is added to a culture solution containing a cultured cell having an FGF receptor on the surface thereof, and the obtained mixture is cultured for a certain period of time. Thereafter, a labeled thymidine is added to the culture solution, followed by further culture for a certain period of time. By measuring the amount of the labeled thymidine incorporated into polymeric DNA during the culture, the degree of FGF to activate DNA synthesis is evaluated. (In the present invention as well, this method was adopted when the activity of FGF21 was measured in Examples 4, 5, 6, 8, 9, and 10.)
(§3) Whether other receptor molecules can also act as such FGF receptors was examined. An expression vector containing each FGFR (FGFR1b, R1c, R2b, R2c, R3b, R3c, and R4) (described in Ornitz, D. M., Xu, J., Colvin, J. S., McEwen, D. G., MacArthur, C. A., Coulier, F., Gao, G. and Goldfarb, M. (1996) Receptor specificity of the fibroblast growth factor family. J Biol Chem, 271, 15292-15297.) was introduced into betaKlotho-expressing BaF3 cells, so as to obtain clones that were resistant to Puromycin and G418, thereby obtaining FGFR/betaKlotho-expressing cells. Such cells were stimulated with FGF21, and the amount of DNA synthesized was measured.
The activity of FGF21 to stimulate the DNA synthesis of BaF3 cells that had expressed each FGFR (FGFR1c, R2c, F3c, and R4) as well as betaKlotho was compared with the activity of FGF19, which was evolutionally relative to FGF21. By procedures opposite to those of Example 5, namely, an expression vector containing betaKlotho was introduced into BaF3 cells that had expressed each type of FGFR, so as to obtain Puromycin- and G418-resistant clones, thereby obtaining FGFR/betaKlotho-expressing cells. The cells were stimulated with FGF21, FGF19, and FGF1 in the presence of heparin, while changing the amounts of FGF21, FGF19, and FGF1, as shown in the figure, and the amount of DNA synthesized was then measured.

[3] = test system: R3c/betaKlotho-expressing cells; test: Phosphorylation of FRS2 and MAPK (Western blotting) in R3c/betaKlotho-expressing cells; assay type: cell-based, mouse; conditions: presence of heparin; 10 minutes stimulation
Sequence of R3c/betaKlotho-expressing cells (Q61851 21-369 limits assumed): as the sequence (Q61851 21-369 limits assumed) above
Sequence of R3c/betaKlotho-expressing cells (Q99N32 whole entry, further chain): as the sequence (Q99N32 whole entry) above
Protocol: as §1

[4] = test system: FGFR4/betaKlotho-expressing BaF3 cells; test: DNA synthesis (thymidine incorporation) in FGFR4/betaKlotho-expressing BaF3 cells; assay type: cell-based, mouse; conditions: BaF3 cells expressing FGFR4 and betaKlotho; presence of heparin
Sequence of FGFR4/betaKlotho-expressing BaF3 cells (Q03142 17-366 limits assumed): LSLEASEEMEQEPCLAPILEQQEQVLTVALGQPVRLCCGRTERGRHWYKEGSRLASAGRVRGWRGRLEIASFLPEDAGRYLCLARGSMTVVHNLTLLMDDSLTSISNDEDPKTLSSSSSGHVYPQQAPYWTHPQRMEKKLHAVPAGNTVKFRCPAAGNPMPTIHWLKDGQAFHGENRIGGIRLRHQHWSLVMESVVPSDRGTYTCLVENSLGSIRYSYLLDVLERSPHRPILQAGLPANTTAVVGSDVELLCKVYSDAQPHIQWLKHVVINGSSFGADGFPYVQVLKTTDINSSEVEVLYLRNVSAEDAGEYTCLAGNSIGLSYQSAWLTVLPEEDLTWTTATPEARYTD
Sequence of FGFR4/betaKlotho-expressing BaF3 cells (Q99N32 whole entry, further chain): as the sequence (Q99N32 whole entry) above
Protocol: as §2, §3
The activity of FGF21 to stimulate the DNA synthesis of BaF3 cells that had expressed each FGFR (FGFR1c, R2c, F3c, and R4) as well as betaKlotho was compared with the activity of FGF19, which was evolutionally relative to FGF21. […] The cells were stimulated with FGF21, FGF19, and FGF1 in the presence of heparin, while changing the amounts of FGF21, FGF19, and FGF1, as shown in the figure, and the amount of DNA synthesized was then measured.

[5] = target: T2, FGFR1c/betaKlotho-expressing BaF3 cells (Mus musculus, UniProt P16092+Q99N32); test: DNA synthesis (thymidine incorporation) in FGFR1c/betaKlotho-expressing BaF3 cells; assay type: cell-based; conditions: BaF3 cells expressing FGFR1c and betaKlotho; presence or absence of heparin
T2 construct: the entire-length cDNA of mouse FGFR1c had been cloned; the entire-length cDNA of mouse betaKlotho was cloned into an animal cell expression vector; expressed in transfected cells; host or cells: BaF3 (mouse pro-B) cells
T2 sequence (P16092 22-822): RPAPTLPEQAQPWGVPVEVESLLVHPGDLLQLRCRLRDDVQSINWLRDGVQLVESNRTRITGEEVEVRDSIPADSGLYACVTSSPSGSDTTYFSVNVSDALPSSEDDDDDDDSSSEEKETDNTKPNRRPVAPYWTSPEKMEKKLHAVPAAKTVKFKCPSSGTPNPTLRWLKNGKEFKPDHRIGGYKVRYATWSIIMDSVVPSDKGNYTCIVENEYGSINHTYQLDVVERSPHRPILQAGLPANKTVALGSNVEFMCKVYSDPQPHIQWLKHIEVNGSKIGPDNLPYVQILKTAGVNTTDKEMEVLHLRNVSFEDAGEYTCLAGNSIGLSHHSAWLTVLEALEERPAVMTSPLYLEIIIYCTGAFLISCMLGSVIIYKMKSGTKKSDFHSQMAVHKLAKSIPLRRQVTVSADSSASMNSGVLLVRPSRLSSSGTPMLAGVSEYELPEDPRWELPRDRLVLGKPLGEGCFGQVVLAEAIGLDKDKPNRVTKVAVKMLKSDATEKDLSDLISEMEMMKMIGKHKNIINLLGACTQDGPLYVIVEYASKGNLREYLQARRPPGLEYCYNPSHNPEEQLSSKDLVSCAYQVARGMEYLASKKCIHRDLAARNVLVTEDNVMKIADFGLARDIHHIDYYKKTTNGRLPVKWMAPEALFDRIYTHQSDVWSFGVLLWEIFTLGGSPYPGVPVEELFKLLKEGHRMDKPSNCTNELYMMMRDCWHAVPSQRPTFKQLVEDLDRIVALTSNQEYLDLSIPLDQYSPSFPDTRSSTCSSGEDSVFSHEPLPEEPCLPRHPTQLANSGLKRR
T2 sequence (Q99N32 whole entry): as the sequence (Q99N32 whole entry) above
Protocol: as §2
FGFR1c-expressing BaF3 cells and FGFR1c- and betaKlotho-expressing BaF3 cells were prepared as follows. In the case of FGFR1c-expressing BaF3 cells, an animal cell expression vector into which the entire-length cDNA of mouse FGFR1c had been cloned (described in Ornitz, D. M., Xu, J., Colvin, J. S., McEwen, D. G., MacArthur, C. A., Coulier, F., Gao, G. and Goldfarb, M. (1996) Receptor specificity of the fibroblast growth factor family. J Biol Chem, 271, 15292-15297.) was introduced into BaF3 cells by an electroporation method. The cells were then cultured in the presence of G418 for approximately 2 weeks, so as to obtain drug-resistant clones. Thereafter, such clones were obtained as those capable of growing as a result of FGF1 stimulation. In the case of both FGFR1c- and betaKlotho-expressing BaF3 cells, the entire-length cDNA of mouse betaKlotho was cloned into an animal cell expression vector, and it was then introduced into the FGFR1c-expressing BaF3 cells. The cells were then cultured in the presence of Puromycin and G418 for approximately 2 weeks, so as to obtain drug-resistant clones. In the case of only betaKlotho-expressing BaF3 cells, a betaKlotho-expressing vector was introduced into BaF3 cells, and Puromycin-resistant clones were then obtained. The BaF3 cells, into which the aforementioned genes had been each introduced, were maintained in an RPMI1640 medium containing 10% FBS and interleukin 3 (IL3, supplied by adding a 5% condition medium of WEHI-3 cells). For the growth stimulation experiment, the cells were washed with an RPMI1640 medium, and they were then suspended in an RPMI1640 medium containing 10% FBS, followed by inoculating the suspension on a culture plate. Thereafter, the resultant cells were used.
Immediately after inoculation, BaF3 cells that had expressed each clone and only FGFR1c were stimulated by addition of FGF21 (open bar) or PBS (filled bar) used as a control in the presence of heparin, and they were then cultured for 42 hours. Thereafter, tritium-labeled thymidine was added to the culture solution, and the culture was further continued for 6 hours. Thereafter, the amount of thymidine incorporated into the cells was measured, so as to evaluate DNA synthesis. A DNA synthesis value obtained when the cells were not stimulated with FGF21 was defined as 1, and the ratio of a DNA synthesis value obtained by stimulating with FGF21 to the aforementioned DNA synthesis value was expressed using magnification. […]

Row | Molecule | phosphorylation of FRS2 and MAPK [1] | DNA synthesis (thymidine incorporated into the cells) [2] | phosphorylation of FRS2 and MAPK [3] | DNA synthesis (thymidine incorporated into the cells) [4] | DNA synthesis (thymidine incorporated into the cells) [5]
1 | FGF1: conventional FGF used as a control | significantly increase the phosphorylation | reacts with all of the receptors | significantly increase the phosphorylation | reacts with all of the receptors | reacts with all of the receptors
2 | B1 | only in FGFR1c/betaKlotho-expressing cells and FGFR3c/betaKlotho-expressing cells | reacted with FGF21; also recorded: activates | increases the phosphorylation | reacts only with FGFR1c and FGFR3c | reacted with FGF21; also recorded: dose-dependently stimulate DNA synthesis; also recorded: activates; also recorded: able to act on FGFR1c-expressing cells
